Assay results as given in patent publication US20240141046A1 (published 2024).
Where two headings read alike, the source gives them in different places.

Legend:
[1] = molecular target: T1, recombinant human CTLA4-Fc (Sino Biological, 11159-H03H) (human, UniProt P16410 36-162); assay: ELISA, Fab captured
T1 construct: bought; also called human CTLA4 fused with human FC fragment
T1 sequence (looked up): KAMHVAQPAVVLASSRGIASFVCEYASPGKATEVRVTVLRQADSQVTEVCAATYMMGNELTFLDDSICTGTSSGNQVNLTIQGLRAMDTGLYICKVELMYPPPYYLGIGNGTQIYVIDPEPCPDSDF

[2] = molecular target: mouse CTLA4 fused with human FC fragment (mouse, UniProt P09793 36-162, limits assumed); assay: ELISA, Fab captured
[3] = molecular target: T1, recombinant human CTLA4-Fc (Sino …); assay: ELISA, CTLA4-Fc coated, batch 1
Experimental: (§1) Plates were blocked with PBS supplemented with 3% non-fat milk at 37° C. for 1 hour. After washing, 100 μL, of 3-fold serial dilutions of antibodies were added to each well. After incubation at 37° C. for 1 hour, plates were washed four times, and 100 μL HRP conjugated anti-human IgG (Fab specific) (1:6000 dilution) was added to each well. Plates were incubated at 37° C. for 1 hour, washed four times, and then 50 μL TMB substrate solution was added to each well, and the plate was incubated at room temperature. […] The EC50 was evaluated by fitting the ELISA data using the asymmetrical sigmoidal (five-parameter logistic equation) model of GraphPad Prism 6 software.

[4] = molecular target: T1, recombinant human CTLA4-Fc (Sino …); assay: ELISA, CTLA4-Fc coated, batch 2
Experimental: as §1

[5] = molecular target: T1, recombinant human CTLA4-Fc (Sino …); assay: ELISA; EC50 over EC50 of TY21580
Experimental: as §1

[6] = molecular target: T1, recombinant human CTLA4-Fc (Sino …); assay: ELISA; EC50 over EC50 of TY21580; remark: listed apart in the source
Experimental: as §1

[7] = molecular target: T1, recombinant human CTLA4-Fc (Sino …); assay: ELISA; EC50 over EC50 of TY21580; remark: listed apart in the source
Experimental: Plates were incubated at 37° C. for 1 hour, washed four times, and then 50 μL TMB substrate solution was added to each well, and the plate was incubated at room temperature. […] The EC50 was evaluated by fitting the ELISA data using the asymmetrical sigmoidal (five-parameter logistic equation) model of GraphPad Prism 6 software.
The purified activatable antibodies were treated with the proteases which recognize the cleavage sequences, and were then tested to determine whether removal of the masking peptide restored their activity. […] The masking efficiency was then measured by ELISA as described above.

[8] = molecular target: T1, recombinant human CTLA4-Fc (Sino …); assay: ELISA; EC50 over EC50 of TY21580; remark: listed apart in the source
Experimental: as §1

B1: B15736 (Fab, V domains shown)
VH: EVQLVESGGGLVQPGGSLRLSCAASGFTFSDYAIHWVRQAPGKGLEWIGIISPSGGSTKYAQKFQGRVTISRDNSKNTLYLQLNSLRAEDTAVYYCARLGYGYFDVWGQGTLVTVSS
VL: DIQLTQSPSSLSASVGDRVTITCRASQSVDFYGISFLHWYQQKPGKAPKLLIYDASSLESGVPSRFSGSGSGTDFTLTISSLQPEDFATYYCVQALQLPLTFGQGTKVEIKR
B1: binds [1]; binds [2].

B2: B15700 (Fab, V domains shown)
VH: EVQLVESGGGLVQPGGSLRLSCAASGFTFSGYAIHWVRQAPGKGLEWIGIISPSGGGTKYAQKFQGRVTISRDNSKNTLYLQLNSLRAEDTAVYYCARHPFAYWGQGTLVTVSS
VL: DIQLTQSPSSLSASVGDRVTITCRASQSVDFYGISFLDWYQQKPGKAPKLLIYDASNRATGIPSRFSGSGSGTDFTLTISSLQPEDFATYYCQQYVSSPPEYTFGQGTKVEIKR
B2: binds [1]; binds [2].

B3: B15709 (Fab, V domains shown)
VH: EVQLVESGGGLVQPGGSLRLSCAASGFTFSDYAIHWVRQAPGKGLEWIGIISPSSGSTNYAQKFQGRVTISRDNSKNTLYLQLNSLRAEDTAVYYCARDIHSGSSGYYYGFDVWGQGTLVTVSS
VL: DIQLTQSPSSLSASVGDRVTITCRASESVDFFGISFLAWYQQKPGKAPKLLIYDASNRATGIPSRFSGSGSGTDFTLTISSLQPEDFATYYCQHYTSSPPVYTFGQGTKVEIKR
B3: binds [1]; binds [2].

B4: TY22401 (antibody, V domains shown)
VH: EVQLVESGGGLVQPGGSLRLSCAASGYSISSGYHWSWIRQAPGKGLEWLARIDWDDDKYYSTSLKSRLTISRDNSKNTLYLQLNSLRAEDTAVYYCARSYVYFDYWGQGTLVTVSS
VL: EVGSYNFVADSCPDHPYPCSASGRSAGGGGSPLGLAGSGGSDIQLTQSPSSLSASVGDRVTITCRASQSVRGRFLAWYQQKPGKAPKLLIYDASNRATGIPSRFSGSGSGTDFTLTISSLQPEDFATYYCQQSSSWPPTFGQGTKVEIKR
notes: peptide fused to the N-terminus of the light chain; also called B13189 (peptide name)
In the case of B4, the LogEC50 [3] is reported as -7.62 and the LogEC50 [4] is reported as -7.8.

B5: TY22775 (antibody, V domains shown)
VH: EVQLVESGGGLVQPGGSLRLSCAASGYSISSGYHWSWIRQAPGKGLEWLARIDWDDDKYYSTSLKSRLTISRDNSKNTLYLQLNSLRAEDTAVYYCARSYVYFDYWGQGTLVTVSS
VL: EVGHSDCDAFYPYCDSSGRSAGGGGTPLGLAGSGGSDIQLTQSPSSLSASVGDRVTITCRASQSVRGRFLAWYQQKPGKAPKLLIYDASNRATGIPSRFSGSGSGTDFTLTISSLQPEDFATYYCQQSSSWPPTFGQGTKVEIKR
Binder B5 has a Masking efficiency [5] of 168 fold.

B6: TY22565 (antibody, IgG1, V domains shown)
VH: EVQLVESGGGLVQPGGSLRLSCAASGYSISSGYHWSWIRQAPGKGLEWLARIDWDDDKYYSTSLKSRLTISRDNSKNTLYLQLNSLRAEDTAVYYCARSYVYFDYWGQGTLVTVSS
VL: EVGSYPQPSSDCVPYYYACAYSGRSAGGGGSPLGLAGSGGSDIQLTQSPSSLSASVGDRVTITCRASQSVRGRFLAWYQQKPGKAPKLLIYDASNRATGIPSRFSGSGSGTDFTLTISSLQPEDFATYYCQQSSSWPPTFGQGTKVEIKR
Work on B6 yielded a LogEC50 [4] of -6.68.

B7: TY22566 (antibody, IgG1, V domains shown)
VH: EVQLVESGGGLVQPGGSLRLSCAASGYSISSGYHWSWIRQAPGKGLEWLARIDWDDDKYYSTSLKSRLTISRDNSKNTLYLQLNSLRAEDTAVYYCARSYVYFDYWGQGTLVTVSS
VL: EVGSYPNPASDCVPYYYACAYSGRSAGGGGSPLGLAGSGGSDIQLTQSPSSLSASVGDRVTITCRASQSVRGRFLAWYQQKPGKAPKLLIYDASNRATGIPSRFSGSGSGTDFTLTISSLQPEDFATYYCQQSSSWPPTFGQGTKVEIKR
For B7, the LogEC50 [4] was -6.79 and the Masking efficiency [5] was 489 fold.

B8: TY22563 (antibody, IgG1, V domains shown)
VH: EVQLVESGGGLVQPGGSLRLSCAASGYSISSGYHWSWIRQAPGKGLEWLARIDWDDDKYYSTSLKSRLTISRDNSKNTLYLQLNSLRAEDTAVYYCARSYVYFDYWGQGTLVTVSS
VL: EVGSYYSAYPACDSHYPYCQSSGRSAGGGGSPLGLAGSGGSDIQLTQSPSSLSASVGDRVTITCRASQSVRGRFLAWYQQKPGKAPKLLIYDASNRATGIPSRFSGSGSGTDFTLTISSLQPEDFATYYCQQSSSWPPTFGQGTKVEIKR
Binder B8 has a LogEC50 [4] of -7.32 and a Masking efficiency [5] of 144 fold.

B9: TY22402 (antibody, IgG1, V domains shown)
VH: EVQLVESGGGLVQPGGSLRLSCAASGYSISSGYHWSWIRQAPGKGLEWLARIDWDDDKYYSTSLKSRLTISRDNSKNTLYLQLNSLRAEDTAVYYCARSYVYFDYWGQGTLVTVSS
VL: EVGSYIVHHSDCDAFYPYCDSSGRSAGGGGSPLGLAGSGGSDIQLTQSPSSLSASVGDRVTITCRASQSVRGRFLAWYQQKPGKAPKLLIYDASNRATGIPSRFSGSGSGTDFTLTISSLQPEDFATYYCQQSSSWPPTFGQGTKVEIKR
notes: also called B13180 (peptide name)
B9 gave a LogEC50 [3] of -6.32, a LogEC50 [4] of -6.9 and a Masking efficiency [5] of 243 fold. The Masking efficiency [6] was 554 fold.

B10: TY22404 (antibody, IgG1, V domains shown)
VH: EVQLVESGGGLVQPGGSLRLSCAASGYSISSGYHWSWIRQAPGKGLEWLARIDWDDDKYYSTSLKSRLTISRDNSKNTLYLQLNSLRAEDTAVYYCARSYVYFDYWGQGTLVTVSS
VL: EVGSYPNPSSDCVPYYYACAYSGRSAGGGGSPLGLAGSGGSDIQLTQSPSSLSASVGDRVTITCRASQSVRGRFLAWYQQKPGKAPKLLIYDASNRATGIPSRFSGSGSGTDFTLTISSLQPEDFATYYCQQSSSWPPTFGQGTKVEIKR
notes: also called B13197 (peptide name)
With B10 the LogEC50 [3] was -6.75, the LogEC50 [4] was -6.89 and the Masking efficiency [5] was 308 fold. For the same binder, the Masking efficiency [7] was 216 fold, the Masking efficiency [6] was 572 fold and the Masking efficiency [8] was 469 fold.

B11: TY22776 (antibody, V domains shown)
VH: EVQLVESGGGLVQPGGSLRLSCAASGYSISSGYHWSWIRQAPGKGLEWLARIDWDDDKYYSTSLKSRLTISRDNSKNTLYLQLNSLRAEDTAVYYCARSYVYFDYWGQGTLVTVSS
VL: EVGSSDCVPYYYACAYSGRSAGGGGTPLGLAGSGGSDIQLTQSPSSLSASVGDRVTITCRASQSVRGRFLAWYQQKPGKAPKLLIYDASNRATGIPSRFSGSGSGTDFTLTISSLQPEDFATYYCQQSSSWPPTFGQGTKVEIKR
B11 was tested, and the Masking efficiency [5] was 296 fold.

B12: TY22564 (antibody, IgG1, V domains shown)
VH: EVQLVESGGGLVQPGGSLRLSCAASGYSISSGYHWSWIRQAPGKGLEWLARIDWDDDKYYSTSLKSRLTISRDNSKNTLYLQLNSLRAEDTAVYYCARSYVYFDYWGQGTLVTVSS
VL: EVGSYYSAYPACDSHYPYCNSAGRSAGGGGSPLGLAGSGGSDIQLTQSPSSLSASVGDRVTITCRASQSVRGRFLAWYQQKPGKAPKLLIYDASNRATGIPSRFSGSGSGTDFTLTISSLQPEDFATYYCQQSSSWPPTFGQGTKVEIKR
For B12, the LogEC50 [4] was -7.41.
